# In patent publication US20260285997 (published 2026):
# Positions count from the first letter of the chain named. “And” between values parts separate entries of the source, which are not always exact repeats. Identical values can stand only once. Like-named read-outs stand apart in the source and are kept apart here.
# B1: V4 IgG (Anti-FLAG-M2-V4) (antibody, V domains shown)
# VH: QVQLVQSGAEVKKPGASVKVSCKASGYSFTTYTIHWVRQAPGQGLEWIGYINPSSGYAAYNQKFQGRVTLTADKSTSTAYMELSSLRSEDTAVYYCAREKFYGYDYWGQGTTVTVSS
# VL: DVVMTQSPDSLAVSLGERATINCKSSQSIVHRNGNTYLEWYQQKPGQPPKLLIYKVSNRFSGVPDRFSGSGSGTDFTLTISSLQAEDVAVYYCFQGSHVPYTFGGGTKLEIK
# B2: V7 IgG (Anti-FLAG-M2-V7) (antibody, V domains shown)
# VH: B1 VH with I34M, I48M, L70M
# VL: B1 VL with Q43L
# B3: Parental anti-FLAG (chimeric) (antibody, V domains shown)
# VH: QVQLQQSAGELARPGASVKMSCKASGYSFTTYTIHWVKQRPGQGLEWIGYINPSSGYAAYNQNFKDETTLTADKSSSTAYMQLSSLTSEDSAVYYCAREKFYGYDYWGQGTTLTVSS
# VL: DVLMTQLPLSLPVSLGDQASISCRSSQSIVHRNGNTYLEWYLLKPGQSPKLLIYKVSNRFSGVPDRFSGSGSGTDFTLKISRVEAEDLGVYYCFQGSHVPYTFGGGTKLEIK
# B4: BEAT 2a2 FLAG arm (antibody)
# chain: DVVMTQSPDSLAVSLGERATINCKSSQSIVHRNGNTYLEWYQQKPGQPPKLLIYKVSNRFSGVPDRFSGSGSGTDFTLTISSLQAEDVAVYYCFQGSHVPYTFGGGTKLEIKGGGGSGGGGSGGGGSQVQLVQSGAEVKKPGASVKVSCKASGYSFTTYTIHWVRQAPGQGLEWIGYINPSSGYAAYNQKFQGRVTLTADKSTSTAYMELSSLRSEDTAVYYCAREKFYGYDYWGQGTTVTVSS
# B5: BEAT 2a3 FLAG arm (antibody)
# chain: B4 chain
# B6: BEAT 2a4 FLAG arm (antibody)
# chain: B4 chain
# B7: V4 scFv (anti-FLAG) (antibody)
# chain: B4 chain
# B8: V7 scFv (anti-FLAG) (antibody)
# chain: B4 chain with Q43L, I161M, I175M, L197M
# B9: BEAT 2a5 FLAG arm (antibody)
# chain: QVQLVQSGAEVKKPGASVKVSCKASGYSFTTYTIHWVRQAPGQGLEWIGYINPSSGYAAYNQKFQGRVTLTADKSTSTAYMELSSLRSEDTAVYYCAREKFYGYDYWGQGTTVTVSSGGGGSGGGGSGGGGSGGGGASDVVMTQSPDSLAVSLGERATINCKSSQSIVHRNGNTYLEWYQQKPGQPPKLLIYKVSNRFSGVPDRFSGSGSGTDFTLTISSLQAEDVAVYYCFQGSHVPYTFGGGTKLEIK
# B10: BEAT 2a8 FLAG arm (antibody)
# chain: B9 chain
# B11: BEAT 2a6 FLAG arm (antibody)
# chain: B9 chain
# Assays:
# FLAG tag antigen [1] = target: T1, FLAG tag antigen; assay: SPR bivalent
# T1 chain: DYKDDDDK
# FLAG-BAP [2] = target: T2, FLAG-BAP (FLAG tag fused to bacterial alkaline phosphatase); assay: SPR
# FLAG-BAP [3] = target: T2, FLAG-BAP; assay: SPR; remark: listed apart in the source
# FLAG tag antigen [4] = target: T1, FLAG tag antigen; assay: SPR
Binder,Kd (FLAG-BAP [3]),further results
B1,34.3 nM and 20.7 nM,Kd (FLAG tag antigen [1]): 0.91 nM; Kd (FLAG-BAP [2]): 34.3 nM and 20.7 nM
B2,27.7 nM and 23.2 nM,Kd (FLAG tag antigen [1]): 1.3 nM; Kd (FLAG-BAP [2]): 23.2 nM and 27.7 nM
B3,,Kd (FLAG tag antigen [1]): 0.96 nM
B4,51.9 nM and 21.7 nM,
B5,5.13 nM and 2.63 nM and 3.04 nM,
B6,13.3 nM and 17 nM,
B7,,Kd (FLAG tag antigen [4]): 22 nM
B8,,Kd (FLAG tag antigen [4]): 15 nM
B9,19.5 nM and 18.1 nM,
B10,10.8 nM and 9.09 nM,
B11,35.1 nM and 32.6 nM,
